Data published in patent US6030776.

Tests used:
[1] = molecular target: N-bromoacetyl-bradykinin (BrBK) (UniProt P01042); conditions: 5' guanosine monophosphorothioate (GMPS); 100-fold reduction in Km vs bulk 30N1 pool, 67-fold higher kcat, 6700-fold higher kcat/Km; thioether bond formation assayed on APM gel
[2] = molecular target: bradykinin (native BK peptide) (UniProt P01042); assay: inhibition; conditions: 5' guanosine monophosphorothioate (GMPS); inhibition of reaction of 12.1 with BrBK; nearly identical to Km of the uninhibited reaction
[3] = molecular target: des-Arg9-bradykinin lacks carboxy-terminal Arg9 (UniProt P01042); assay: inhibition; conditions: 5' guanosine monophosphorothioate (GMPS); inhibition of reaction of 12.1 with BrBK; about 18-fold weaker than BK

AGGCUUCGACAAACGCUCAAAGCUGUUGGCAGCGCUGGUGAAGGGAUGGC [reactant 12.1 GMPS-RNA]
fold reduction in Km vs starting pool [1]: 100 fold
Ki [2]: 140 µM
Ki [3]: 2600 µM
